pIC50: −log10 of the molar value. Where two headings read alike, the source gives them in different places.

Consider 4 compounds from patent publication US12285502B2, “HER3 peptides for imaging and radiotherapy” (The General Hospital Corporation, priority 2016, dated 2025).

The test system of data set [1] is TNBC cell lines. The conditions noted are these: criterion for cell lines considered sensitive (CAL-148, HCC-70, CAL-51, HCC-1395, HS-578T); cited from earlier work.
For another data set, the target named is EGFR (Homo sapiens, UniProt P00533). The conditions noted are these: 250 nM peptide, 405 nm. The method, then: (§1) The purity and molecular weight were determined by high performance liquid chromatography and mass spectrometry. […] Following blocking with 1% non-fat dry milk, increasing concentrations of peptide were incubated with target protein for 1 h at 37° C. Wells were washed with 0.1% TBST, and bound peptide detected by addition of HRP-conjugated streptavidin (Abeam, Cambridge, UK), washing and ABTS substrate incubation for 10 minutes. Absorbance at 405 nm was read by spectrophotometer. […] Plates were washed and bound peptide once again detected by addition of streptavidin-HRP and ABTS and absorbance read at 405 nm.

The next data set deals with HER3 ECD (Homo sapiens, UniProt P21860). The conditions noted are these: peptide ELISA absorbance. The protocol:
as §1
A general note: ELISA stands for enzyme-linked immunosorbent assay.

Data set [2] has as its system MDA-MB-453 breast cancer cells (moderate HER3). The data set can be described thus: HER3 peptide cellular binding (streptavidin-HRP absorbance, fluorescent microscopy), MDA-MB-453. The data set is classed as cell-based. The protocol: (§2) Two cell lines, MDA-MB-453 breast cancer cells which express moderate levels of HER3 and HCC-1954 cells which express low levels of HER3, were chosen to assess the ability of the peptide to discriminate between relatively close expression levels in vitro. Cells were seeded at a density of 1×10^5 cells/well in 96 well plates (Fisher) and grown overnight for 24 h in fetal bovine serum supplemented medium. HER3 peptide or a control peptide were added at 250 nM in media and incubated for 1 h at 37° C. Cells were washed 3× with PBS and bound peptide detected by addition of streptavidin-HRP. Cells were once again washed and bound peptide detected by addition of ABTS and absorbance read at 405 nm. Visual confirmation of peptide binding was confirmed by fluorescent microscopy. MDA-MB-453 and HCC-1954 cells were fixed in 10% formalin and dried onto microscope slides overnight. Following rehydration with TBS, slides were blocked with 2% BSA in TBS for 1 h prior to addition of peptide at a concentration of 250 nM in 0.1% TBST and incubation at room temperature for 1 h. Cells were washed 3× with 0.1% TBST and neutravidin-Alexafluor488 was added to cells and incubated at room temperature for 1 h. Cells were washed, mounted with Vectorshield mounting media with DAPI (Vector Labs, Burlingame, CA) and visualized by inverted microscope (Olympus, Tokyo, Japan).

For data set [3], the system named is HCC-1954 cells (low HER3). The data set can be described thus: HER3 peptide cellular binding (streptavidin-HRP absorbance, fluorescent microscopy), HCC-1954. The data set is classed as cell-based. Particulars: fixed HCC-1954 cells, 250 nM peptide. The method, then: as §2
The next data set concerns human MDA-MB-453 tumors. On the set-up: species or system mice. Particulars: mouse, in vivo. The protocol:
Following imaging, mice were treated with 100 mg/kg of lapatinib every 12 hours for 48 hours following PET imaging. At the end of 48 hours, mice were imaged in the exact same manner as before treatment.

For data set [4] the following is noted: mouse, in vivo, iv.
Description: Following PET acquisition, tumors and relevant organs were removed from mice, weighed, and total activity for each was quantified by a Wallac gamma counter (Perkin Elmer, Waltham, MA). […] The specific activity of the labeled peptide was 296±25.9 MBq/mg.
Data set [5] has as its system 22RV1 (high HER3 expressing prostate cancer) tumors. On the set-up: species or system Nu/nu mice. Particulars: mouse, in vivo. The method, then: (§3) The peptide was radio labeled with the radiometal ^68Ga eluted from a ^68Ge/^68Ga generator (iThemba, South Africa) in 0.05M HCl. The pH of the elution was adjusted to approximately 4 by 2M=2-[4-(2-hydroxyethyl) piperazin-1-yl]ethanesulfonic acid and 100 ng of peptide reacted with the elution for 10 min at room temperature. Peptide was purified from free ^68Ga by reverse phase C18 cartridge (Waters, Milford, MA) and purity determined by ITLC. The peptide was then prepared in normal saline to a specific activity of approximately 300 MBq/mg for injection into mice. Nu/nu mice bearing either 22RV1 (high HER3 expressing prostate cancer) or HCC-1954 (low HER3 expressing breast cancer) tumors were implanted in the right upper flank of mice and grown to approximately 5-7 mm. Radiolabeled HER3 peptide was injected intravenously and allowed to circulate for 1 h prior to PET imaging. PET images were acquired on an Inveon micro PET/CT (Siemens, Knoxville, TN) for 15 minutes in list mode, followed by CT acquisition. Images were constructed using 3D-MLEM (20 subsets) and corrected for scatter and randoms. The tumor and blood uptake was calculated in a 3D region of interest drawn around the tumor and heart, respectively, using CT guidance. Images were post-processed using VivoQuant (InviCRO, Boston, MA).

Data set [6] deals with HCC-1954 (low HER3 expressing breast cancer) tumors. On the set-up: species or system Nu/nu mice. The conditions noted are these: mouse, in vivo. The protocol: as §3
The subject of data set [7] is TNBC cell lines. The conditions noted are these: criterion for cell lines considered sensitive (HDQ-P1, CAL-51, HCC-70, CAL-148, HCC-1395, HS-578T); cited from earlier work.

Chain of HER3 ECD (P21860 20-643 limits assumed): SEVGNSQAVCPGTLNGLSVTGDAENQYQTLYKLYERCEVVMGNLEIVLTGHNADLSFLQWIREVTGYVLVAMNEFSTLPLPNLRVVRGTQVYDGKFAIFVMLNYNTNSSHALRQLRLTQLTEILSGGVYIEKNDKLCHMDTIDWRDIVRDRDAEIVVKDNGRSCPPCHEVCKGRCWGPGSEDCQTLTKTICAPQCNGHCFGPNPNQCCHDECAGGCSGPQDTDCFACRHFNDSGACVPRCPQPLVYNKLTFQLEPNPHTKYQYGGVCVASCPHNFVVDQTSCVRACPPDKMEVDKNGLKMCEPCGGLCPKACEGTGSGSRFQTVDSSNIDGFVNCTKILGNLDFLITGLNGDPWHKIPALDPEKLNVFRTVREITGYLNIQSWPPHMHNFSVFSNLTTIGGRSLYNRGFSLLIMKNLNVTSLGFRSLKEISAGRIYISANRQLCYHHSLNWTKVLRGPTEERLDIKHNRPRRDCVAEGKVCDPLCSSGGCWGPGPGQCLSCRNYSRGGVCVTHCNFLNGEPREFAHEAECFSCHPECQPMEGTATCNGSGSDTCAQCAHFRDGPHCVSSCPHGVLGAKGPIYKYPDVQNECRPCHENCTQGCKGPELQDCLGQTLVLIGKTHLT

One may read the pIC50 as the IC50 on a negative log10 scale, so that one unit is a factor of ten. Take `CC(C)NC[C@@H](C(=O)N1CCN(c2ncnc3c2[C@H](C)C[C@H]3O)CC1)c1ccc(Cl)cc1` [GDC-0068]: in the data set with TNBC cell lines [1], the pIC50 is over 6.00.
For C-L-P-T-K-F-R-S-C [HER3P1], the “absorbance of binding to EGFR” value on EGFR was determined as 0.21±0.09. Besides, the “selectivity/specificity for HER3 over other proteins (EGFR, HER2, BSA)” value on HER3 ECD is “approximately 4 fold”. Further, the “selectivity/specificity for HER3 over other proteins (EGFR, HER2, BSA)” value on HER3 ECD (listed as displayed peptide conjugated to biotin) was “greater than 4 fold”. Also, the cell binding absorbance in data set [2] (MDA-MB-453, 250 nM peptide, 1 h 37° C., 405 nm) was found to be 0.29±0.06. Further, the “binding by fluorescent microscopy” value in data set [2] (fixed MDA-MB-453 cells, 250 nM peptide) is reported as “high binding”. In addition, the “binding by fluorescent microscopy” value in [3] is recorded as “almost no visualization”. In addition, in the data set with human MDA-MB-453 tumors, the SUVmean was found to be 0.42±0.04. Also, in data set [4], the “biodistribution, HER3+ tumors” value turned out to be 0.50±0.18 % ID/g; the “biodistribution, intestines” value is given as 0.48±0.15 % ID/g; the “biodistribution, kidneys” value is reported as 10.1±1.67 % ID/g; the “biodistribution, lungs” value is listed as 0.70±0.14 % ID/g. Also, in data set [4], the “biodistribution, stomach” value was determined as 0.30±0.07 % ID/g.
As to `CC(C)C[C@@H]1NC(=O)[C@@H](NC(=O)CNC(=O)CNC(=O)CNC(=O)CCNC(=S)Nc2ccc(CC3CN(CC(=O)O)CCN(CC(=O)O)CCN3CC(=O)O)cc2)CSSC[C@@H](C(=O)O)NC(=O)[C@H](CO)NC(=O)[C@H](CCCNC(=N)N)NC(=O)[C@H](Cc2ccccc2)NC(=O)[C@H](CCCCN)NC(=O)[C@H]([C@@H](C)O)NC(=O)[C@@H]2CCCN2C1=O` (stereo partly drawn) [^68Ga-(NOTA-NCS)-HER3P1, ^68Ga-(NOTA-NCS)-beta A-G-G-G-C-L-P-T-K-F-R-S-C, metal not drawn], the off-target peptide accumulation result in [5] is on record as “minimal”. In addition, the “tumor uptake by PET imaging” value in [5] was “high”; in data set [6], “much lower levels”. Also, the results for the “standardized tumor to blood ratios (TBR)” value in [5] (iv) and in data set [6] (iv) were 1.60-3.32 and 0.69-0.94, respectively.
In the case of `CS(=O)(=O)N1CCN(Cc2cc3nc(-c4cccc5[nH]ncc45)nc(N4CCOCC4)c3s2)CC1` [GDC-0941], the pIC50 in the data set on TNBC cell lines [7] was over 6.00.
